# Data from IntAct's records for PubMed 20704562.
# B1: Transmembrane protease serine 6 (Homo sapiens), Q8IU80 (parent)
# chain: MLLLFHSKRMPVAEAPQVAGGQGDGGDGEEAEPEGMFKACEDSKRKARGYLRLVPLFVLLALLVLASAGVLLWYFLGYKAEVMVSQVYSGSLRVLNRHFSQDLTRRESSAFRSETAKAQKMLKELITSTRLGTYYNSSSVYSFGEGPLTCFFWFILQIPEHRRLMLSPEVVQALLVEELLSTVNSSAAVPYRAEYEVDPEGLVILEASVKDIAALNSTLGCYRYSYVGQGQVLRLKGPDHLASSCLWHLQGPKDLMLKLRLEWTLAECRDRLAMYDVAGPLEKRLITSVYGCSRQEPVVEVLASGAIMAVVWKKGLHSYYDPFVLSVQPVVFQACEVNLTLDNRLDSQGVLSTPYFPSYYSPQTHCSWHLTVPSLDYGLALWFDAYALRRQKYDLPCTQGQWTIQNRRLCGLRILQPYAERIPVVATAGITINFTSQISLTGPGVRVHYGLYNQSDPCPGEFLCSVNGLCVPACDGVKDCPNGLDERNCVCRATFQCKEDSTCISLPKVCDGQPDCLNGSDEEQCQEGVPCGTFTFQCEDRSCVKKPNPQCDGRPDCRDGSDEEHCDCGLQGPSSRIVGGAVSSEGEWPWQASLQVRGRHICGGALIADRWVITAAHCFQEDSMASTVLWTVFLGKVWQNSRWPGEVSFKVSRLLLHPYHEEDSHDYDVALLQLDHPVVRSAAVRPVCLPARSHFFEPGLHCWITGWGALREGGPISNALQKVDVQLIPQDLCSEVYRYQVTPRMLCAGYRKGKKDACQGDSGGPLVCKALSGRWFLAGLVSWGLGCGRPNYFGVYTRITGVISWIQQVVT
# partner: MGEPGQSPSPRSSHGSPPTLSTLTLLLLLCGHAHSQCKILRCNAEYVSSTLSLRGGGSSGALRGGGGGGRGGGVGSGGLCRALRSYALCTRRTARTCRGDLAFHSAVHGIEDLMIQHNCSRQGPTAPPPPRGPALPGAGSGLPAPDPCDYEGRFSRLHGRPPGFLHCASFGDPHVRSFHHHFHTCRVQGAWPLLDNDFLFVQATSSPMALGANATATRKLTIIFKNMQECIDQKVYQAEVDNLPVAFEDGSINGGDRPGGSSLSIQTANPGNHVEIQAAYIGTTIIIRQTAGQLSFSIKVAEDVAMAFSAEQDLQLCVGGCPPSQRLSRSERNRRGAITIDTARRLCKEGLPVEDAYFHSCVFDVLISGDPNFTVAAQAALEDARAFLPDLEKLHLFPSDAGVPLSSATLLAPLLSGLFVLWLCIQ
# Variants of: B1
# Settings: with rgmc_human HJV
row,effect of a mutation on the interaction,Variant
1,with no effect,Y141C
